The chains are these.
T1: RecB (E. coli, UniProt P08394 1-1180)
T1 construct: RecB, E. coli, full length (134 kDa); also called full length RecB; source: purified as part of the RecBCD hetero-trimer
T1 sequence (looked up): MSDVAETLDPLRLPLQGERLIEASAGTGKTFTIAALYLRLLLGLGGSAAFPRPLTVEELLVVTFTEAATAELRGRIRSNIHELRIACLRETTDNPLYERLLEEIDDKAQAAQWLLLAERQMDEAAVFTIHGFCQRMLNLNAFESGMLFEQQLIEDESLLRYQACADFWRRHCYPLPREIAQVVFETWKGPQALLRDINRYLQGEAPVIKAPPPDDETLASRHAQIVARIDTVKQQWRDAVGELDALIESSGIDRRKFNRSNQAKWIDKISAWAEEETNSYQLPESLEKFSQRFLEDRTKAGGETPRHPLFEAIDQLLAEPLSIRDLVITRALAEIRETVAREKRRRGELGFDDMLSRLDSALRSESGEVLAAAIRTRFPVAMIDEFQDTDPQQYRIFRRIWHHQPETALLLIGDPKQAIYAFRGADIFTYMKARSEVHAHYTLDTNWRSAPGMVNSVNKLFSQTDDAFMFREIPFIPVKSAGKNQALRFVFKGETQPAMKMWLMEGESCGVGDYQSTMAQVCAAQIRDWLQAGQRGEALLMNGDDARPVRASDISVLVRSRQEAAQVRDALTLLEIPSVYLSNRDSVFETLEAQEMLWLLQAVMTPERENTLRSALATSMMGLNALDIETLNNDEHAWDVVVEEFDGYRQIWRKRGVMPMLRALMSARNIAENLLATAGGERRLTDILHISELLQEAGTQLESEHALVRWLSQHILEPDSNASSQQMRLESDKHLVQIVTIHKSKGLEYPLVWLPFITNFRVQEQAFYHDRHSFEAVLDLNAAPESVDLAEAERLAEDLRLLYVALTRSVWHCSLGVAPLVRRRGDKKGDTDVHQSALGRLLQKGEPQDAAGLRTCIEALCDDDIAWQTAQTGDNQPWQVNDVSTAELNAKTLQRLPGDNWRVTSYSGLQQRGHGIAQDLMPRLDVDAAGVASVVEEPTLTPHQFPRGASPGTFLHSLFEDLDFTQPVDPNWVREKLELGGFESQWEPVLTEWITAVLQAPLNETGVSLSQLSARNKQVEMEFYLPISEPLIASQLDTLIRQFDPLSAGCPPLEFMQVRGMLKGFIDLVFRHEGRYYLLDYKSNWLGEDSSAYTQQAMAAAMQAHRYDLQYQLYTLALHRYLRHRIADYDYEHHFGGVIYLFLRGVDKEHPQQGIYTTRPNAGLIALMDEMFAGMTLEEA

B1: RecC (natural protein, E. coli)
chain: MLRVYHSNRLDVLEALMEFIVERERLDDPFEPEMILVQSTGMAQWLQMTLSQKFGIAANIDFPLPASFIWDMFVRVLPEIPKESAFNKQSMSWKLMTLLPQLLEREDFTLLRHYLTDDSDKRKLFQLSSKAADLFDQYLVYRPDWLAQWETGHLVEGLGEAQAWQAPLWKALVEYTHQLGQPRWHRANLYQRFIETLESATTCPPGLPSRVFICGISALPPVYLQALQALGKHIEIHLLFTNPCRYYWGDIKDPAYLAKLLTRQRRHSFEDRELPLFRDSENAGQLFNSDGEQDVGNPLLASWGKLGRDYIYLLSDLESSQELDAFVDVTPDNLLHNIQSDILELENRAVAGVNIEEFSRSDNKRPLDPLDSSITFHVCHSPQREVEVLHDRLLAMLEEDPTLTPRDIIVMVADIDSYSPFIQAVFGSAPADRYLPYAISDRRARQSHPVLEAFISLLSLPDSRFVSEDVLALLDVPVLAARFDITEEGLRYLRQWVNESGIRWGIDDDNVRELELPATGQHTWRFGLTRMLLGYAMESAQGEWQSVLPYDESSGLIAELVGHLASLLMQLNIWRRGLAQERPLEEWLPVCRDMLNAFFLPDAETEAAMTLIEQQWQAIIAEGLGAQYGDAVPLSLLRDELAQRLDQERISQRFLAGPVNICTLMPMRSIPFKVVCLLGMNDGVYPRQLAPLGFDLMSQKPKRGDRSRRDDDRYLFLEALISAQQKLYISYIGRSIQDNSERFPSVLVQELIDYIGQSHYLPGDEALNCDESEARVKAHLTCLHTRMPFDPQNYQPGERQSYAREWLPAASQAGKAHSEFVQPLPFTLPETVPLETLQRFWAHPVRAFFQMRLQVNFRTEDSEIPDTEPFILEGLSRYQINQQLLNALVEQDDAERLFRRFRAAGDLPYGAFGEIFWETQCQEMQQLADRVIACRQPGQSMEIDLACNGVQITGWLPQVQPDGLLRWRPSLLSVAQGMQLWLEHLVYCASGGNGESRLFLRKDGEWRFPPLAAEQALHYLSQLIEGYREGMSAPLLVLPESGGAWLKTCYDAQNDAMLDDDSTLQKARTKFLQAYEGNMMVRGEGDDIWYQRLWRQLTPETMEAIVEQSQRFLLPLFRFNQS
notes: RecC, E. coli, wild type; Called wild type; source: purified as part of the RecBCD or RecB^ΔNucCD hetero-trimer
B2: RecD (natural protein, E. coli)
chain: MKLQKQLLEAVEHKQLRPLDVQFALTVAGDEHPAVTLAAALLSHDAGEGHVCLPLSRLENNEASHPLLATCVSEIGELQNWEECLLASQAVSRGDEPTPMILCGDRLYLNRMWCNERTVARFFNEVNHAIEVDEALLAQTLDKLFPVSDEINWQKVAAAVALTRRISVISGGPGTGKTTTVAKLLAALIQMADGERCRIRLAAPTGKAAARLTESLGKALRQLPLTDEQKKRIPEDASTLHRLLGAQPGSQRLRHHAGNPLHLDVLVVDEASMIDLPMMSRLIDALPDHARVIFLGDRDQLASVEAGAVLGDICAYANAGFTAERARQLSRLTGTHVPAGTGTEAASLRDSLCLLQKSYRFGSDSGIGQLAAAINRGDKTAVKTVFQQDFTDIEKRLLQSGEDYIAMLEEALAGYGRYLDLLQARAEPDLIIQAFNEYQLLCALREGPFGVAGLNERIEQFMQQKRKIHRHPHSRWYEGRPVMIARNDSALGLFNGDIGIALDRGQGTRVWFAMPDGNIKSVQPSRLPEHETTWAMTVHKSQGSEFDHAALILPSQRTPVVTRELVYTAVTRARRRLSLYADERILSAAIATRTERRSGLAALFSSRE
notes: RecD, E. coli, wild type; Called wild type; Most of RecD has only weak density in the structures solved here; source: purified as part of the RecBCD or RecB^ΔNucCD hetero-trimer
B3: RecB^ΔNuc (RecB with the nuclease domain, residues 930-1180, deleted) (domain or fragment, E. coli, UniProt P08394 1-929, looked up)
chain: MSDVAETLDPLRLPLQGERLIEASAGTGKTFTIAALYLRLLLGLGGSAAFPRPLTVEELLVVTFTEAATAELRGRIRSNIHELRIACLRETTDNPLYERLLEEIDDKAQAAQWLLLAERQMDEAAVFTIHGFCQRMLNLNAFESGMLFEQQLIEDESLLRYQACADFWRRHCYPLPREIAQVVFETWKGPQALLRDINRYLQGEAPVIKAPPPDDETLASRHAQIVARIDTVKQQWRDAVGELDALIESSGIDRRKFNRSNQAKWIDKISAWAEEETNSYQLPESLEKFSQRFLEDRTKAGGETPRHPLFEAIDQLLAEPLSIRDLVITRALAEIRETVAREKRRRGELGFDDMLSRLDSALRSESGEVLAAAIRTRFPVAMIDEFQDTDPQQYRIFRRIWHHQPETALLLIGDPKQAIYAFRGADIFTYMKARSEVHAHYTLDTNWRSAPGMVNSVNKLFSQTDDAFMFREIPFIPVKSAGKNQALRFVFKGETQPAMKMWLMEGESCGVGDYQSTMAQVCAAQIRDWLQAGQRGEALLMNGDDARPVRASDISVLVRSRQEAAQVRDALTLLEIPSVYLSNRDSVFETLEAQEMLWLLQAVMTPERENTLRSALATSMMGLNALDIETLNNDEHAWDVVVEEFDGYRQIWRKRGVMPMLRALMSARNIAENLLATAGGERRLTDILHISELLQEAGTQLESEHALVRWLSQHILEPDSNASSQQMRLESDKHLVQIVTIHKSKGLEYPLVWLPFITNFRVQEQAFYHDRHSFEAVLDLNAAPESVDLAEAERLAEDLRLLYVALTRSVWHCSLGVAPLVRRRGDKKGDTDVHQSALGRLLQKGEPQDAAGLRTCIEALCDDDIAWQTAQTGDNQPWQVNDVSTAELNAKTLQRLPGDNWRVTSYSGLQQRGHGIAQDLMPRLDVDAA
notes: RecB, E. coli; the C-terminal nuclease domain RecB^Nuc (RecB930-1180) is deleted, the deletion starts at amino acid 930 and leaves the whole linker (870-929) intact; runs at 105 kDa; Subunit of the RecB^ΔNucCD hetero-trimer; source: purified to homogeneity as part of the RecB^ΔNucCD hetero-trimer, as described previously for RecBCD

The subject of one data set is RecBCD (E. coli). The data set is described as follows: competition fluorescence titration. The conditions noted are these: Buffer M275-10: 20 mM MOPS pH 7.0, 275 mM NaCl, 10 mM MgCl2, 25 °C (M50-10: 50 mM NaCl); cryo-EM buffer 20 mM Tris pH 7.4, 50 mM NaCl, 4 mM MgCl2.
For data set [1], the target named is T2, RecBΔNucCD RecB:del930-1180 (E. coli) (UniProt P08394+P07648+P04993). The data set is described as follows: competition fluorescence titration. The settings on record: Buffer M275-10: 20 mM MOPS pH 7.0, 275 mM NaCl, 10 mM MgCl2, 25 °C (M50-10: 50 mM NaCl); cryo-EM buffer 20 mM Tris pH 7.4, 50 mM NaCl, 4 mM MgCl2.
Data set [2] deals with T2, RecBΔNucCD RecB:del930-1180 (E. coli). The data set is described as follows: ITC. The conditions noted are these: Buffer M275-10: 20 mM MOPS pH 7.0, 275 mM NaCl, 10 mM MgCl2, 25 °C (M50-10: 50 mM NaCl); cryo-EM buffer 20 mM Tris pH 7.4, 50 mM NaCl, 4 mM MgCl2.
For the next data set, the target named is T1, RecB. As to the kind of experiment: AUC; sedimentation velocity, c(s) distribution; 200 nM protein, Buffer M50-10 (20 mM MOPS pH 7.0, 50 mM NaCl, 10 mM MgCl2), 25 °C, 42,000 rpm, absorbance at 280 nm. The conditions noted are these: both partners purified.
The data set “RecC” concerns the target B1. The description is as above. The conditions noted are these: both partners purified.

This note sets out measurements from publication PMC13101046 (Journal of molecular biology, 2025).

Several values for one entry are separate records, joined by “and”; a condition that tells them apart may be missing. Equal values may be shown once.

Take 3'-dT2: the Ka in the data set on RecBCD (E. coli) was 2.1e+07 M⁻¹; in data set [1], 9.6e+07 M⁻¹. Consider 3'-dT4, for which the Ka amounted to 4.7e+07 M⁻¹ in the data set with RecBCD (E. coli) and 3.3e+08 M⁻¹ in data set [1]. For 3'-dT6 the same measures were 1.1e+08 M⁻¹ and 9.5e+08 M⁻¹. Regarding 3'-dT8, the Ka in data set [1] is 7.2e+08 M⁻¹. For the molecule 3'-dT10, the figures for the Ka (with RecBCD (E. coli); in data set [1]) were 5e+07 M⁻¹ and 5.9e+08 M⁻¹, respectively.

As for 3'-dT15, the Ka in the data set on RecBCD (E. coli) came to 1e+07 M⁻¹; in data set [1], 6e+07 M⁻¹. In the same order, the values of 5'-dT6 are 1.1e+08 M⁻¹ and 1.4e+08 M⁻¹. 5'-dT8 showed a Ka in data set [1] of 2.3e+08 M⁻¹.

As for 5'-dT10, the Ka amounted to 2.2e+08 M⁻¹ with RecBCD (E. coli) and 6.4e+08 M⁻¹ in data set [1]. For the molecule 5'-dT15, the figures for the Ka (in the data set on RecBCD (E. coli); in data set [1]) were 2.3e+08 M⁻¹ and 6.5e+08 M⁻¹, respectively.

For the molecule blunt ended 60 bp DNA, the Ka in the data set with RecBCD (E. coli) stood at 1.4e+07 M⁻¹; in data set [1], 4.7e+07 M⁻¹. In the case of dT4-dT4, the Ka in data set [2] is > 1e+09 M⁻¹. On the same count and under the same terms, the result for dT6-dT6 reads > 1e+09 M⁻¹. On the same count and under the same terms, the figure for dT10-dT10 is > 1e+09 M⁻¹; for dT15-dT15 it is > 1e+09 M⁻¹. The same measure, in the same setting: the figure for dT20-dT20 is > 1e+09 M⁻¹. For dT25-dT25, the Ka in data set [2] is > 1e+09 M⁻¹.

As to dT30-dT30, in data set [2], the Ka is 6.8e+08 M⁻¹ and > 1e+09 M⁻¹. Consider B1, for which, in the data set with RecB, the binding result is given as “binds”. As for B2, the binding result in the data set with RecC is reported as “binds”.

As to B3, the binding result in the data set with RecC is reported as “binds”.
